According to patent US20250034239A1 (LINNO PHARMACEUTICALS, published 2025):

T1: human VEGFA121 (human, UniProt P15692-9 27-147, biotinylated)
T1 construct: Biotinylated; also called hVEGFA121; hVEGFA121-biotin
T1 sequence (looked up): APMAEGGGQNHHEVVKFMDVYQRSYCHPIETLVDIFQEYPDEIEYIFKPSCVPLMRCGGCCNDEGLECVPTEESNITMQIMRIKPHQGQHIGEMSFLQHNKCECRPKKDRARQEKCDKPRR

B1: SLN6065 humanized VHH-Fc (Fc fusion)
chain: EVQLVESGGGLVQPGGSLRLSCAASRDAYFNNYMAWFRQAPGKGLEGVSSIATNTGNDYYADSVKGRFTISRDNSKNTIYLQMNSLRAEDTAVYYCAAGWRGGSFWTPSKYSYWGQGTLVTVSS
notes: tested as VHH-Fc; also called D2-9; not shown: human IgG4 Fc (VHH-hIgG4 Fc fusion)
B2: SLN-6068 humanized VHH-Fc (Fc fusion)
chain: EVQLVESGGGLVQPGGSLRLSCAASVYTSSTYYMAWFRQAPGKGREGVAAAYAGGGGTVYADSVKGRFTISQDNSKNTLYLQMNSLRAEDTAVYYCAARMSRLLGMAPLLPEHYDSWGQGTLVTVSS
notes: tested as VHH-Fc; also called C2-11; not shown: human IgG4 Fc (VHH-hIgG4 Fc fusion)
B3: SLN-6043 humanized VHH-Fc (Fc fusion)
chain: EVQLVESGGGVVQPGGSLRLSCAASGFTSDNCAVHWVRQAPGKGLEWVSSISSDDSTRYADSVKGRFTISRDNSKNSLYLQMNSLRTEDTALYYCQTKWPCTYRRGGSAYRPAVVWGQGTLVTVSS
notes: tested as VHH-Fc; also called F6-1; not shown: human IgG4 Fc (VHH-hIgG4 Fc fusion)
B4: SLN6062 humanized VHH-Fc (Fc fusion)
chain: EVQLVESGGGLVQPGGSLRLSCAASVYTASCMGWFRQAPGKGLELVSTLNRNSGRTSYVGSVKGRFTISQDNSKKTLYLQMNSLRAEDTAVYYCAATWSWYSFTCPGDQNAYIHWGQGTLVTVSS
notes: tested as VHH-Fc; also called C8-9; not shown: human IgG4 Fc (VHH-hIgG4 Fc fusion)
B5: SLN0049 VHH-OVA-His (VHH)
chain: EVQLVESGGGSVQAGGSLRLSCAASRATNSRYSMGWFRQAPGKEREGVAAIDSIGRTSYADSVKGRFTISQDGAKNTLYLQMNSLKPEDTAMYYCAATAWRDWATLREYEYGYWGQGTQVTVSSGSIGAASMEFCFDVFKELKVHHANENIFYCPIAIMSALAMVYLGAKDSTRTQINKVVRFDKLPGFGDSIEAQCGTSVNVHSSLRDILNQITKPNDVYSFSLASRLYAEERYPILPEYLQCVKELYRGGLEPINFQTAADQARELINSWVESQTNGIIRNVLQPSSVDSQTAMVLVNAIVFKGLWEKAFKDEDTQAMPFRVTEQESKPVQMMYQIGLFRVASMASEKMKILELPFASGTMSMLVLLPDEVSGLEQLESIINFEKLTEWTSSNVMEERKIKVYLPRMKMEEKYNLTSVLMAMGITDVFSSSANLSGISSAESLKISQAVHAAHAEINEAGREVVGSAEAGVDAASVSEEFRADHPFLFCIKHIATNAVLFFGRCVSP
notes: Tested as recombinant VHH-OVA-His; not shown: His tag
B6: SLN0044 VHH-OVA-His (VHH)
chain: DVQLVESGGGSVQAGGSLRLSCAASIYTYSTACMAWFRQAPGKEREGVAAIARYGDTTYTDSVKGRFTISRDVAKNILYLQMSSLKPEDTAMYYCASKSPNSGCDEYAHYETFGQGTQVTVSSGSIGAASMEFCFDVFKELKVHHANENIFYCPIAIMSALAMVYLGAKDSTRTQINKVVRFDKLPGFGDSIEAQCGTSVNVHSSLRDILNQITKPNDVYSFSLASRLYAEERYPILPEYLQCVKELYRGGLEPINFQTAADQARELINSWVESQTNGIIRNVLQPSSVDSQTAMVLVNAIVFKGLWEKAFKDEDTQAMPFRVTEQESKPVQMMYQIGLFRVASMASEKMKILELPFASGTMSMLVLLPDEVSGLEQLESIINFEKLTEWTSSNVMEERKIKVYLPRMKMEEKYNLTSVLMAMGITDVFSSSANLSGISSAESLKISQAVHAAHAEINEAGREVVGSAEAGVDAASVSEEFRADHPFLFCIKHIATNAVLFFGRCVSP
notes: as for B5
B7: SLN0071 VHH-OVA-His (VHH)
chain: EVQLVESGGGSVQAGGSLRLSCAGSEYTYSRCCMGWFRQAPGKEREGVVSINVLGGTSYADSVKGRFTISRDNAENTLYLQMNSLKPEDTAMYYCAAGLASAPWRPCGTTTEEYKYWGQGTQVTVSSGSIGAASMEFCFDVFKELKVHHANENIFYCPIAIMSALAMVYLGAKDSTRTQINKVVRFDKLPGFGDSIEAQCGTSVNVHSSLRDILNQITKPNDVYSFSLASRLYAEERYPILPEYLQCVKELYRGGLEPINFQTAADQARELINSWVESQTNGIIRNVLQPSSVDSQTAMVLVNAIVFKGLWEKAFKDEDTQAMPFRVTEQESKPVQMMYQIGLFRVASMASEKMKILELPFASGTMSMLVLLPDEVSGLEQLESIINFEKLTEWTSSNVMEERKIKVYLPRMKMEEKYNLTSVLMAMGITDVFSSSANLSGISSAESLKISQAVHAAHAEINEAGREVVGSAEAGVDAASVSEEFRADHPFLFCIKHIATNAVLFFGRCVSP
notes: as for B5
B8: SLN0056 VHH-OVA-His (VHH)
chain: EVQLVESGGGSVQAGGSLRLSCRASGHAYGGNYMGWFRQAPGKEREGVAVLYTGGGSTYYADSVKGRFTISEDNAKNTVYLQMDSLKLEDTAMYYCALALGSARWYTSSLDARAYNIWGQGTQVTVSSGSIGAASMEFCFDVFKELKVHHANENIFYCPIAIMSALAMVYLGAKDSTRTQINKVVRFDKLPGFGDSIEAQCGTSVNVHSSLRDILNQITKPNDVYSFSLASRLYAEERYPILPEYLQCVKELYRGGLEPINFQTAADQARELINSWVESQTNGIIRNVLQPSSVDSQTAMVLVNAIVFKGLWEKAFKDEDTQAMPFRVTEQESKPVQMMYQIGLFRVASMASEKMKILELPFASGTMSMLVLLPDEVSGLEQLESIINFEKLTEWTSSNVMEERKIKVYLPRMKMEEKYNLTSVLMAMGITDVFSSSANLSGISSAESLKISQAVHAAHAEINEAGREVVGSAEAGVDAASVSEEFRADHPFLFCIKHIATNAVLFFGRCVSP
notes: as for B5
B9: SLN0065 VHH-OVA-His (VHH)
chain: EVQLVESGGGSVQAGGSLRLSCLYTDSLFWMGWFRQTPGNEREGVAVTGRDGSTIYADSVQGRFTISRDNAKNTLYLQMNSLKPDDTAMYYCAADQTRYSSLRLLAPNRSASWGQGTQVTVSSGSIGAASMEFCFDVFKELKVHHANENIFYCPIAIMSALAMVYLGAKDSTRTQINKVVRFDKLPGFGDSIEAQCGTSVNVHSSLRDILNQITKPNDVYSFSLASRLYAEERYPILPEYLQCVKELYRGGLEPINFQTAADQARELINSWVESQTNGIIRNVLQPSSVDSQTAMVLVNAIVFKGLWEKAFKDEDTQAMPFRVTEQESKPVQMMYQIGLFRVASMASEKMKILELPFASGTMSMLVLLPDEVSGLEQLESIINFEKLTEWTSSNVMEERKIKVYLPRMKMEEKYNLTSVLMAMGITDVFSSSANLSGISSAESLKISQAVHAAHAEINEAGREVVGSAEAGVDAASVSEEFRADHPFLFCIKHIATNAVLFFGRCVSP
notes: as for B5
B10: SLN0072 VHH-OVA-His (VHH)
chain: EVQLVESGGGSVQAGGSLRLSCVASGYTGSSSYMGWFRQVPGKEREGVAQINSRSGSTYYADSVKGRFTISQDNAKNTVYLQMTSLKPEDTGMYYCAERFGPTFYPVPLGSNLYNYWGQGTQVTVSSGSIGAASMEFCFDVFKELKVHHANENIFYCPIAIMSALAMVYLGAKDSTRTQINKVVRFDKLPGFGDSIEAQCGTSVNVHSSLRDILNQITKPNDVYSFSLASRLYAEERYPILPEYLQCVKELYRGGLEPINFQTAADQARELINSWVESQTNGIIRNVLQPSSVDSQTAMVLVNAIVFKGLWEKAFKDEDTQAMPFRVTEQESKPVQMMYQIGLFRVASMASEKMKILELPFASGTMSMLVLLPDEVSGLEQLESIINFEKLTEWTSSNVMEERKIKVYLPRMKMEEKYNLTSVLMAMGITDVFSSSANLSGISSAESLKISQAVHAAHAEINEAGREVVGSAEAGVDAASVSEEFRADHPFLFCIKHIATNAVLFFGRCVSP
notes: as for B5

Biological target: T1, human VEGFA121
Experiment: target-binding ELISA on hVEGFA121, humanized VHH-Fc
Procedure: For binding ELISA, immunoplates were coated with 100 μl/well 1 μg/ml streptavidin and incubate at 4° C. overnight. Wells were washed with PBST for 3 times and blocked with 200 μl of 1% BSA/PBS at RT for 1 hr. Washed with PBST for 3 times and add hVEGFA121-biotin or mVEGFA120-biotin (0.1 μg/ml) 100 al/well and incubated at RT for 1 hr. Plates were washed with PBST for 3 times, 100 al/well 5-fold serially diluted VHH-Fcs from 2 μg/ml was added. and incubate at RT for 1 hr. Plates were washed with PBST for 3 times and add 100 al goat anti-human Fc-HRP (Sigma, A0170) diluted 1/5000 in 1% BSA/PBST to each well and incubate at RT for 1 hr. Plates were then washed as before and add 100 al TMB substrate and incubate at RT for 15 min. 100 al per well stop solution was added to stop the reaction, and the plates were read with microplate reader at 450 nm.
Four VHHs (C2, C8, F6, D2) were selected for humanization. Proceed with plasmid construction and protein production as above, the humanized VHH-Fc was characterized with target-binding (ELISA) and RBA.

| binding result | Binder |
| --- | --- |
| binds | B1 |
| binds | B2 |
| binds | B3 |
| binds | B4 |

Biological target: T2, human transferrin receptor 1 on HEK293F-hTfR1 cells (human, UniProt P02786 1-760)
T2 construct: whole, on cells
Experiment: flow cytometry on HEK293F-hTfR1 cells with or without transferrin
Procedure: (§1) HEK293F-hTfR1 cells were prepared by transfecting hTfR1-expressing plasmid, with a GFP tag, into HEK293F cells. Stable pool was used for this assay. Briefly, the engineered HEK293F cells expressing hTfR1 were cultured with OPM-293 CD05 medium at 37° C., with 8% CO₂ and saturated humidity in cell shaker. […] The cells were washed twice by centrifugation at 300 g for 5 min at 4° C., before rabbit anti-OVA antibodies and a secondary anti-rabbit IgG-AF647 (all prepared in blocking buffer). The cells were scanned with CytoFLEX (Beckman).

T2 sequence (P02786 whole entry): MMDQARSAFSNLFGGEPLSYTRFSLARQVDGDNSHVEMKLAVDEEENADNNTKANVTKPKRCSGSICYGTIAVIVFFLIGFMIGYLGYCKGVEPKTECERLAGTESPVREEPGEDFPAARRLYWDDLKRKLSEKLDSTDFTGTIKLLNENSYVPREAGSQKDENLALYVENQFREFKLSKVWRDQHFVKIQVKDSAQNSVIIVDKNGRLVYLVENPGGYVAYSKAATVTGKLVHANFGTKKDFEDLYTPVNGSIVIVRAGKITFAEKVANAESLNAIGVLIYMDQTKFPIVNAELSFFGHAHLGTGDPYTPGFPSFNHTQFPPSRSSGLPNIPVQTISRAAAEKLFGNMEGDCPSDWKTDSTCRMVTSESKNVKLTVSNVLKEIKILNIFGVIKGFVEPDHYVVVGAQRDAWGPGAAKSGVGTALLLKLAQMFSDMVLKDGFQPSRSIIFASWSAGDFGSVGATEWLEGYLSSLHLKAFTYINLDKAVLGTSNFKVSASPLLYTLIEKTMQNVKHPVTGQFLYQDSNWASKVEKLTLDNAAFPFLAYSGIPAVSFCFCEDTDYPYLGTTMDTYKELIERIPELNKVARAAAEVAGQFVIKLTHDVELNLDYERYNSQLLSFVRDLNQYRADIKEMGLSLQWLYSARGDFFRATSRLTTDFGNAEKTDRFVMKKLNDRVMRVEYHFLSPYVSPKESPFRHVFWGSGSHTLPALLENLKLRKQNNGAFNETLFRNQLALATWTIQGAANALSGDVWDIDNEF

| binding result | Binder |
| --- | --- |
| no binding (tested: 10 µg/mL) | B5 |
| no binding (tested: 10 µg/mL) | B6 |
| no binding (tested: 10 µg/mL) | B7 |
| no binding (tested: 10 µg/mL) | B8 |
| no binding (tested: 10 µg/mL) | B9 |
| no binding (tested: 10 µg/mL) | B10 |

Biological target: T3, human transferrin (Sigma T3309) (human, UniProt P02787 20-698)
T3 construct: mature; same polypeptide; also called native human transferrin; hTf
Experiment: flow cytometry on HEK293F-hTfR1 cells with human transferrin, pH 6.0; grade by % binding (+++ ≥ 15%)
Procedure: as §1

T3 sequence (P02787 20-698): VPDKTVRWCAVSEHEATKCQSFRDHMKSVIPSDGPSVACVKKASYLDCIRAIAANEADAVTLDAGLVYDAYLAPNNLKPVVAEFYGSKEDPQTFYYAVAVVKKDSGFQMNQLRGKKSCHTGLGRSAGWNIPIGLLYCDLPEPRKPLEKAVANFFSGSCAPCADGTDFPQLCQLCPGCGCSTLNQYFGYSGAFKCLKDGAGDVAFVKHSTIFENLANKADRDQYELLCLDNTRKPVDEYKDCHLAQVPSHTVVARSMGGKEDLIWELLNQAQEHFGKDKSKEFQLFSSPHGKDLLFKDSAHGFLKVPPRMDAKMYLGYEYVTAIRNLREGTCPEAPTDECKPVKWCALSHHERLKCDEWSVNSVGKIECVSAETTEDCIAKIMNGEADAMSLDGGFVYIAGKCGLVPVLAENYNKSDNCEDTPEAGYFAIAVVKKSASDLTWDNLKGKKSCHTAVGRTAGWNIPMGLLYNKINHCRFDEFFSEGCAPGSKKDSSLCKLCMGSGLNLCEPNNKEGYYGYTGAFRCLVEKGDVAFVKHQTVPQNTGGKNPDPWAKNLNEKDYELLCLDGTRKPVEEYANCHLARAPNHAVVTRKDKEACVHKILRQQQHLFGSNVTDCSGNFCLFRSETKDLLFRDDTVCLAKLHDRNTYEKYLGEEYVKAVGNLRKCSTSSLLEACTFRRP

| percent binding (flow cytometry, VHH/Tf on hTfR1-overexpressing cells, pH 6.0) [%] | Binder |
| --- | --- |
| ≥ 15 | B5 |
| ≥ 15 | B6 |
| ≥ 15 | B8 |
| ≥ 15 | B10 |

Biological target: T3, human transferrin (Sigma T3309)
Experiment: flow cytometry on HEK293F-hTfR1 cells with human transferrin, pH 7.4; grade by % binding (+++ ≥ 15%)
Procedure: as §1

| percent binding (flow cytometry, VHH/Tf on hTfR1-overexpressing cells, pH 7.4) [%] | Binder |
| --- | --- |
| ≥ 15 | B5 |
| ≥ 15 | B8 |
| ≥ 15 | B10 |

Biological target: T3, human transferrin (Sigma T3309)
Experiment: flow cytometry on HEK293F-hTfR1 cells with human transferrin, pH 7.4; grade by % binding (10% > + ≥ 5%)
Procedure: as §1

| percent binding (flow cytometry, VHH/Tf on hTfR1-overexpressing cells, pH 7.4) [%] | Binder |
| --- | --- |
| 5 to 10 | B7 |
| 5 to 10 | B9 |
